Source: publication PMC12833424

Tests used:
[1] = system: IgG1-DS5 (human IgG1/kappa framework, scFv phage library derived); assay: ELISA; conditions: 2'-O-methyl, ELISA: streptavidin or anti-FAM plates, PBS/0.05% Tween 20 washes, BSA or Blotto block, EMSA: PBS, 1 h, room temperature, 20 uM oligo, 25 ng/uL IgG, 5% …
[2] = system: IgG1-DS5 (human IgG1/kappa framework, scFv phage library derived); assay: SPR steady state; conditions: ELISA: streptavidin or anti-FAM plates, PBS/0.05% Tween 20 washes, BSA or Blotto block, EMSA: PBS, 1 h, room temperature, 20 uM oligo, 25 ng/uL IgG

Sequence | binding signal (% of T2 ELISA slope) [1] | binding signal (% of full complex ELISA slope) [1] | other results
UUUCUGAAGAAAUUUCCUGUGUC / UUUCUUCAG [T10 TempFlp:9-co] | 0 | – | –
UUUUUCCUGUGUCCUGAAGAAAGCA / UUUCUUCAGGACACAG [T1 TempTr1:oligo-1] | – | 100 | –
UUUUUCCUGUGUCACAAUAGAG / CUCUAUUGU [T9 TempTr8:complementary 9-mer] | 0 | – | –
UUUUUCUGAAGAA / UUUCUUCAG [T4 TempTr3:9-co] | 0 | – | –
UUUUUCCUGUGUCCUGAAGAAAGCAAAGACAUCUGGACAU / AUGUCUUUGCUUUCUUCAGG [D6 template:contig. complement-1] | – | 0.8 | –
UUUUUCCUGUGUCCUGAAGAAAGCAAAGACAUCUGGACAU / GUCCAGAUGUCUUUGC [D2 template:azide-haplomer-2] | – | – | binding signal (% of full complex ELISA slope) ([1]; 3' azide on strand 2): 0
UUUUUCGUGUGUGCUGAAGAAA / UUUCUUCAG [T8 TempTr7:9-co] | 0 | – | –
UUUUUCCUGUGUCCUGAAGAAAGCAAAGACAUCUGGACAU / UUUCUUCAGGACACAG / GUCCAGAUGUCUUUGC [Temp1:BCN-haplomer-1:azide-haplomer-2 complex] | – | – | Kd ([2]; all 2'-O-methyl, 5' BCN on strand 2, 3' azide on strand 3, reacting to triazole): 330 nM
UUUUUCCUGUGUCCUGAAGAAAGCA / UUUCUUCAG [T2 duplex without biotin] | – | – | Kd ([2]; 2'-O-methyl, 5% …): 440 nM
UUUUUCCUGUGUCCUGAAGAAAGCAAAGACAUCUGGACAU / UUUCUUCAGGACACAG / GUCCAGAUGUCUUUGC [D5 template:oligo-1:oligo-2] | – | 45 | –
UUUUUCCUGUGUCCUGAAGAAAGCAAAGACAUCUGGACAU / UUUCUUCAGGACACAG [D3 template:oligo-1] | – | 76.1 | –
UUUUUCCUGUGUCCUGAAGAAAGCAAAGACAUCUGGACAU / GUCCAGAUGUCUUUGC [D4 template:oligo-2] | – | 0 | –
UUUUUCUCUCUGGCUGAAGAAA / UUUCUUCAG [T5 TempTr4:9-co] | 0 | – | –
UUUUUCCUGUGUCCUGAAGAAA / UUUCUUCAG [T3 TempTr2:9-co] | – | 100 | –
UUUUUCCUGUGUCCUGAAGAAAGCA / UUUCUUCAG [T2 TempTr1:9-co] | – | 100 | –
